In assay [1] the target is T1, NCR1 extracellular domain fused to a generic transmembrane domain, on tetracycline-inducible FlpIn cells (human, UniProt O76036 22-258).
T1 construct: extracellular domain; HEK293 FlpIn cells, expression on tetracycline addition; also called NCR1 over expression cell line; not shown: transmembrane domain of platelet-derived growth factor (so in the source) with a HA tag
The experiment in a line: flow cytometry, Fab on tetracycline-inducible cells over-expressing the ECD (FIG. S5). Here is the method:
(§1) To investigate the specificity of both activating and non-functional antibodies for their receptor targets, we developed a tetracycline-inducible cell line for each protein target—CD16, NCR1, NCR3, CD244, TNFRSF9, and TNFSF4. The ECDs of these proteins were fused to a generic transmembrane domain and were expressed upon tetracycline addition.
(§2) Titrations were performed on primary human NK cells or tetracycline induced overexpression cell lines as indicated. When tetracycline induced overexpression cell lines were used, cells were dosed with 10 μg/mL tetracycline for 2 days prior to staining. The starting concentration of each Fab or bispecific antibody was 1 μM, and serial 1:5 dilutions were performed. Antibodies were incubated with cells for 1 hr at 4° C., washed 2 times in 3% BSA in PBS pH 7.4, and stained for 30 min with an Alexafluor-647 conjugated goat anti-human IgG F(ab′)2 fragment (Jackson ImmunoResearch Laboratories) at a 1:50 dilution. After an additional 3 washes, cells were fixed and fluorescence was quantified using a CytoFLEX (Beckman Coulter). All flow cytometry data were analyzed using FlowJo software.

Assay [2] concerns the target T2, NCR1 as expressed on NK cells (human, UniProt O76036 22-304).
T2 construct: whole, on cells; Primary human peripheral blood NK cells; NKL cells stably transduced with NCR1 in the bispecific cytotoxicity assay; also called peripheral blood NK cells; NCR1+ NKL cells
Kind of assay: flow cytometry, Fab titration on peripheral blood NK cells (FIG. S6). The protocol:
To evaluate the affinity of the selected antibodies for NK cells, we titrated the nine Fab clones on peripheral blood NK cells.
as §2
For orientation: Flow cytometry measures light scatter and fluorescence of single cells or particles in a stream.

For assay [3], the target named is T3, TNFSF4 extracellular domain fused to a generic transmembrane domain, on tetracycline-inducible FlpIn cells (UniProt P23510 51-183).
T3 construct: extracellular domain; also called OX40L; not shown: transmembrane domain of platelet-derived growth factor (so in the source) with a HA tag
T3 sequence (looked up): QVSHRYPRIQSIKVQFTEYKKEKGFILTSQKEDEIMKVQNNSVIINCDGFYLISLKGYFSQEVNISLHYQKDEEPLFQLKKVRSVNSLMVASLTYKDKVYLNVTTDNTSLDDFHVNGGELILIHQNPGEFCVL
The experiment in a line: flow cytometry, Fab on tetracycline-inducible cell lines over-expressing each ECD (FIG. S5). The protocol: as §1, §2

The target in assay [4] is T4, NCR3 extracellular domain fused to a generic transmembrane domain, on tetracycline-inducible FlpIn cells (human, UniProt O14931 19-135).
T4 construct: extracellular domain; HEK293 FlpIn cells, expression on tetracycline addition; also called NCR3 over expression cell line; not shown: transmembrane domain of platelet-derived growth factor (so in the source) with a HA tag
T4 sequence (looked up): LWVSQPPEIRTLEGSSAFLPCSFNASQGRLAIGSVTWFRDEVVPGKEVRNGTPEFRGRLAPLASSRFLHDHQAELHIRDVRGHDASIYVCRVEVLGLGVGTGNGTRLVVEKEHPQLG
Described as above. The protocol: as §1, §2

The target in assay [5] is T5, TNFRSF9 extracellular domain fused to a generic transmembrane domain, on tetracycline-inducible FlpIn cells (UniProt Q07011 24-186).
T5 construct: extracellular domain; also called 4-1BB; not shown: transmembrane domain of platelet-derived growth factor (so in the source) with a HA tag
The description is as above. The protocol:
as §1, §2

Assay [6] concerns the target T6, CD16 extracellular domain fused to a generic transmembrane domain, on tetracycline-inducible FlpIn cells (human, UniProt P08637 17-208).
T6 construct: extracellular domain; HEK293 FlpIn cells, expression on tetracycline addition; also called CD16 over expression cell line; CD16A; not shown: transmembrane domain of platelet-derived growth factor (so in the source) with a HA tag
The assay is described as above. The protocol:
as §1, §2

Assay [7] addresses T7, CD244 extracellular domain fused to a generic transmembrane domain, on tetracycline-inducible FlpIn cells (UniProt Q9BZW8 22-229).
T7 construct: extracellular domain; not shown: transmembrane domain of platelet-derived growth factor (so in the source) with a HA tag
T7 sequence (looked up): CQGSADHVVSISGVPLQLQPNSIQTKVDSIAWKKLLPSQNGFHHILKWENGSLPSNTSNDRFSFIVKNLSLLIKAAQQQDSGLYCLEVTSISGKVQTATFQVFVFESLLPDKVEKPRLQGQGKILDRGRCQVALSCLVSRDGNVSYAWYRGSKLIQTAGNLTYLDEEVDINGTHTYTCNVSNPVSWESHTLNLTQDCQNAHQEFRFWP
The assay is described as above. The protocol:
as §1, §2

Assay [8] concerns the target T8, NCR1 extracellular domain TEV-cleavable Fc-fusion, biotinylated (human, UniProt O76036 22-258, biotinylated (site not stated)).
T8 construct: extracellular domain; Antigen of the phage selections and Fab-phage ELISAs; not shown: TEV cleavage site and Fc domain
The experiment in a line: Fab-phage selection and Fab-phage ELISA on biotinylated ECD Fc-fusion (antigen column of Table S1). The protocol: To generate antibodies against these antigens, we expressed the extracellular domains (ECDs) of these proteins as TEV-cleavable Fc-fusions and performed Fab-phage display selections to enrich for high affinity antibody binders (FIG. S1), as previously described [Hornsby, M. et al., Mol Cell Proteomics. 14(10), 2833-2847 (2015)]. After each selection, Fab-phage ELISAs were performed to determine the relative affinity and selectivity of these binders for their antigen targets (FIG. S2).
TEV-cleavable Fc-fusion proteins were expressed and biotinylated in Expi293F cells using the standard expression protocol. Media were harvested after 4 days of expression and protein was purified by protein A affinity chromatography. Phage selections were performed according to previously established protocols1 with the Fab-phage Library E2. Non-specific binders were depleted from the library by incubating the phage pool with Fc-domain immobilized on streptavidin beads. Fab phage were selected using biotinylated Fc-fusions that were captured on streptavidin-coated magnetic beads, and were released through TEV elution. Each selection consists of four rounds. With each round, decreasing amounts of Fc-fusions (1 μM, 100 nM, 10 nM, and […]) were used. ELISAs were performed for 96 individual Fab-phage clones from the third or fourth rounds of selection to evaluate for affinity and selectivity.
ELISAs were performed as previously described1. In brief, Maxisorp plates were coated with 10 μg/mL of Neutravidin overnight at 4° C. Biotinylated target antigen (20 nM) was captured on the Neutravidin coated plates for 30 min, and then exposed to a 1:5 dilution of phage supernatants for 30 min. Bound phage were detected via a horseradish-peroxidase-conjugated anti-phage monoclonal antibody (GE Lifesciences).
(In general: In an ELISA, binding on a coated surface is turned into a signal by an enzyme label.)

T2 sequence (O76036 22-304): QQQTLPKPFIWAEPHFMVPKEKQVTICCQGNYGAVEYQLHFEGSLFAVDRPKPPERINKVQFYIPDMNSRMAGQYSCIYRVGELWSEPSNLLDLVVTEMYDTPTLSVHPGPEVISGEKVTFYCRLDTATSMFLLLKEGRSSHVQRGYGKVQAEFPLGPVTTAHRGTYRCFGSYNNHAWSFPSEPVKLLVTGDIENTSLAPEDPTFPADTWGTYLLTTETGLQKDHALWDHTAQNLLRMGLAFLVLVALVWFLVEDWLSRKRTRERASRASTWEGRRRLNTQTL
T6 sequence (P08637 17-208): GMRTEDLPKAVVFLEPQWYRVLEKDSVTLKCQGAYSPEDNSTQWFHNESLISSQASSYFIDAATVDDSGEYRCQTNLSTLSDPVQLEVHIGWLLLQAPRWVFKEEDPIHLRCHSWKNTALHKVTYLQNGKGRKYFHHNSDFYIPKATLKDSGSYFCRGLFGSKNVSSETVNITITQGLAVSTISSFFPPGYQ
T1 sequence (O76036 22-258): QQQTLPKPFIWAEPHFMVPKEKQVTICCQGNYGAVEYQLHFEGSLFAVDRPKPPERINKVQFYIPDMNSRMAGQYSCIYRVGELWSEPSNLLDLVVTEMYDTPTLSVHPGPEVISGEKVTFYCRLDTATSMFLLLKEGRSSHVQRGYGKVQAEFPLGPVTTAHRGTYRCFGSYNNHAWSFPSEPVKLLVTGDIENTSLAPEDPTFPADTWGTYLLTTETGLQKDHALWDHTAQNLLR
T8 sequence (O76036 22-258): as above

B1: NCR1.11 Fab (Fab)
heavy: EVQLVESGGGLVQPGGSLRLSCAASGFNVYYSYIHWVRQAPGKGLEWVASISSYYGSTYYADSVKGRFTISADTSKNTAYLQMNSLRAEDTAVYYCARSRYLQDYWSSWWVSWYGLDYWGQGTLVTVSSASTKGPSVFPLAPSSKSTSGGTAALGCLVKDYFPEPVTVSWNSGALTSGVHTFPAVLQSSGLYSLSSVVTVPSSSLGTQTYICNVNHKPSNTKVDKKVEPKSCDKTHT
light: DIQMTQSPSSLSASVGDRVTITCRASQSVSSAVAWYQQKPGKAPKLLIYSASSLYSGVPSRFSGSRSGTDFTLTISSLQPEDFATYYCQQSSSSLITFGQGTKVEIKRTVAAPSVFIFPPSDSQLKSGTASVVCLLNNFYPREAKVQWKVDNALQSGNSQESVTEQDSKDSTYSLSSTLTLSKADYEKHKVYACEVTHQGLSSPVTKSFNRGEC
notes: also called anti-NCR1 Fab #27
As to B1, the binding result is “binds” in assay [1]; “binds” in assay [2]; “no binding” in assay [3]; “no binding” in assay [4]; “no binding” in assay [5]; “no binding” in assay [6]. The figures for the binding result in assay [7] and in assay [8] were “no binding” and “binds”, respectively.

The values are drawn from patent US20240279331A1 (University of California, published 2024).
